These results are taken from patent publication US7037662 (dated 2006).

First the molecules themselves.
B1: soluble HEK (sHEK), complete extracellular domain (exodomain) of HEK encoded by exons I-VII (receptor, human, UniProt P29320 21-541, looked up)
chain: ELIPQPSNEVNLLDSKTIQGELGWISYPSHGWEEISGVDEHYTPIRTYQVCNVMDHSQNNWLRTNWVPRNSAQKIYVELKFTLRDCNSIPLVLGTCKETFNLYYMESDDDHGVKFREHQFTKIDTIAADESFTQMDLGDRILKLNTEIREVGPVNKKGFYLAFQDVGACVALVSVRVYFKKCPFTVKNLAMFPDTVPMDSQSLVEVRGSCVNNSKEEDPPRMYCSTEGEWLVPIGKCSCNAGYEERGFMCQACRPGFYKALDGNMKCAKCPPHSSTQEDGSMNCRCENNYFRADKDPPSMACTRPPSSPRNVISNINETSVILDWSWPLDTGGRKDVTFNIICKKCGWNIKQCEPCSPNVRFLPRQFGLTNTTVTVTDLLAHTNYTFEIDAVNGVSELSSPPRQFAAVSITTNQAAPSPVLTIKKDRTSRNSISLSWQEPEHPNGIILDYEVKYYEKQEQETSYTILRARGTNVTISSLKPDTIYVFQIRARTAAGYGTNSRKFEFETSPDSFSISGESSQ
notes: extracellular domain; Untagged soluble exodomain from CHO cells; also called HEK exodomain

The target in assay [1] is T1, recombinant Human Fc fragment (control) (human, UniProt P01857-1 99-330 = IgG part, limits assumed).
T1 construct: domain: Fc fragment; also called human Fc domain; control recombinant Fc construct
The assay can be described thus: BIAcore; human Fc domain at 10 µg/ml (50 µl) on an sHEK-derivatised sensor chip; response 20 s after the end of the injection. The protocol: Figure 2C: FIG. 2C: Expression of soluble HEK (sHEK) polypeptides encoded by the constructs shown in B. sHEK in lane 1 corresponds to the complete extracellular domain (exodomain) of HEK encoded by exons I–VII. […] Samples (50 μl) of purified fusion proteins comprising the human Fc domain and either LERK 1, 2, 3, 4, 5 and 7 at 10 μg/ml in BIAcore running buffer were applied onto an sHEK-derivatised sensor chip. The responses were recorded 20 s after completion of the injection phase and are shown as relative BIAcore response units, (RU) compared to the response of an equal amount of human Fc domain used as a control in this experiment.
Receptor-ligand interactions within the Eph family RTKs has mainly been studied by modified indirect Scatchard analysis of human IgG-Fc fusion proteins of ligands or receptors binding to receptor or ligand transfected cells, respectively (Beckmann et al., 1994, supra; Davis et al., 1994, supra; Ceretti et al., 1995, supra: Bennett et at., 1995). To evaluate if BIAcore analysis also detected the interaction of various LERKs with HEK, we compared the binding of bivalent, Fc-fusion proteins of LERK (LERKS 1 to 5) and LERK 7 (FIG. 2C) to sensor chip-immobilised HEK exodomain. Each ligand sample was injected at concentrations between 0.1–10 µg/ml (approximately 0.8 to 80 nM) across the sensor chip. […]

Assay [2] addresses B1. Nature of the assay: BIAcore, apparent KD from kinetic rate constants, immobilised sHEK. The protocol: (§1) The binding of various HEK constructs and derived peptides was analysed on the BIAcore optical biosensor (Pharmacia Biosensor, Sweden) using purified soluble HEK (corresponding to the entire extracellular domain) or LERK 7-FLAG derivatised CM 5 sensor chips and the interaction kinetics determined. The immobilization of HEK onto the sensor chip surface was performed essentially as described by Lackmann et al, 1996. LERK7-FLAG (47 μg/ml in 20 mM sodium acetate, pH 4.5) was coupled at 5 μl/min onto N-hydroxysuccinimide (NHS, 0.05 M)/N-hydroxysuccinimide-N-ethyl-N'-([…]) carbodiimide(EDC, 0.2 M) activated sensor chips (45 μl, 2 μl/min) to yield an increase in the response level of 2500–3000 response units (RU).
(§2) Figures 5A, 5B: FIG. 5: Binding curves for the interaction of monovalent LERK-FLAG fusion proteins with immobilised sHEK. Homogeneous preparations of CHO cell-derived LERK 3-FLAG (panel A) or LERK 7-FLAG (panel B) at increasing concentrations (8.22, 16.44, 32.88, 65.75, 131.5, 263, 526 nM) of LERK3-FLAG, and (1.25, 2.5, 5, 10, 20, 40, 80 nM) LERK7-FLAG were injected across an sHEK-derivatised sensor surface. BIAcore data for the association and dissociation phases were used to estimate corresponding kinetic rate constants on the basis of a one-to-one interaction model. (panel C). […]

In assay [3] the target is B1. The assay can be described thus: BIAcore, LERK-FLAG over HEK sensor chip; reference LERK 7-FLAG.
Assay [4] has as its target B1. Nature of the assay: BIAcore, LERK 3-FLAG over immobilised sHEK, single component model. The protocol: as §1, §2
The target in assay [5] is B1. Nature of the assay: BIAcore, LERK-FLAG over immobilised HEK; reference LERK 3-FLAG.
The target of assay [6] is B1. The assay can be described thus: BIAcore, monovalent ligand constructs on HEK; reference LERK 3-FLAG.
Assay [7] deals with T2, HEK I-VII (N-terminally FLAG-tagged HEK exodomain, exons I-VII) (human, UniProt P29320 21-541).
T2 construct: extracellular domain; CHO cell product; in the zebrafish experiments expressed from injected mRNA; also called HEK-FLAG
T2 sequence (looked up): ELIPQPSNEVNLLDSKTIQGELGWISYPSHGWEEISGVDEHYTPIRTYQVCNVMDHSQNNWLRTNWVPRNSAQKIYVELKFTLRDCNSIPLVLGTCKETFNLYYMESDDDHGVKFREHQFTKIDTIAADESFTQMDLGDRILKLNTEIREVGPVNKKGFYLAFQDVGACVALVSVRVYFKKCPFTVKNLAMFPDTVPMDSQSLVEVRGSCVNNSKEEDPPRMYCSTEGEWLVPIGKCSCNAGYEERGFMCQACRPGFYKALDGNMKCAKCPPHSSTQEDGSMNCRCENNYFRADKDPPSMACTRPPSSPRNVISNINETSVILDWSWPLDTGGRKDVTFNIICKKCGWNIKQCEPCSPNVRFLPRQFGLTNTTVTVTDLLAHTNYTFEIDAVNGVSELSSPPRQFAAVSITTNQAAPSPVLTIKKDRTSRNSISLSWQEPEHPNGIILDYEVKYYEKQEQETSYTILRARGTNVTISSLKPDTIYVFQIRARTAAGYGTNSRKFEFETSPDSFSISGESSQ
The assay can be described thus: BIAcore, apparent KD from kinetic constants, HEK I-VII over sensor chip-immobilised LERK 7. The protocol:
as §1
(§3) Figure 2D: FIG. 2D: sHEK proteins at increasing concentrations (15.6–500 nM) were injected onto LERK 7-derivatised sensor chips and the association rate constants, (M) derived from BIAcore raw data using the BIA evaluation software as described in *Materials and Methods*. Figure 2E: FIG. 2E; The kinetic rate constants were then used to estimate apparent dissociation constants according to K_D=kd/ka. The mean and standard deviation from estimates at five different concentrations are shown (dark shading). In addition, equilibrium responses were used to estimate the apparent equilibrium dissociation constants (light shading).

Assay [8] deals with B1. Nature of the assay: BIAcore, apparent KD from kinetic constants, sHEK over sensor chip-immobilised LERK 7; sHEK over sensor chip-immobilised LERK 7. The protocol:
as §1, §3

Assay [9] concerns the target B1. Nature of the assay: BIAcore, LERK 7-FLAG over immobilised sHEK, single component model. The protocol: as §1, §2

Turning to B1, the binding result in [1] is listed as “no binding (tested: 10 µg/ml)”.

B2: LERK 3-FLAG (monovalent FLAG-tagged LERK 3) (ligand, UniProt P52797 23-214, looked up, not shown: small tags and cut ends)
chain: QGPGGALGNRHAVYWNSSNQHLRREGYTVQVNVNDYLDIYCPHYNSSGVGPGAGPGPGGGAEQYVLYMVSRNGYRTCNASQGFKRWECNRPHAPHSPIKFSEKFQRYSAFSLGYEFHAGHEYYYISTPTHNLHWKCLRMKVFVCCASTSHSGEKPVPTLPQFTMGPNVKINVLEDFEGENPQVPKLEKSISG
notes: CHO cell-derived
On to B2, for which, in assay [2], the Kd was determined as 590 nM. In addition, in [3], the “fold higher concentration needed for a response comparable to LERK7” value is roughly 30 fold. In assay [4], this molecule showed an off-rate constant (koff) of 0.26 s⁻¹ and an on-rate constant (kon) of 370000 M⁻¹ s⁻¹.

B3: LERK 7-FLAG (monovalent LERK7/AL-1 with N-terminal FLAG peptide) (ligand, human, UniProt P52803 21-203, looked up, not shown: small tags and cut ends)
chain: QDPGSKAVADRYAVYWNSSNPRFQRGDYHIDVCINDYLDVFCPHYEDSVPEDKTERYVLYMVNFDGYSACDHTSKGFKRWECNRPHSPNGPLKFSEKFQLFTPFSLGFEFRPGREYFYISSAIPDNGRRSCLKLKVFVRPTNSCMKTIGVHDRVFDVNDKVENSLEPADDTVHESAEPSRGEN
notes: domain: mature protein stopped before the hydrophobic tail; also called soluble LERK7
Turning to B3, the “fold lower off rate than LERK3-FLAG” value in [5] came out at 40 fold. Further, the “fold more avid than LERK3” value in assay [6] stood at 50 fold. Also, the figures for the Kd in assay [2], in [7] and in assay [8] were 12 nM, 62 nM and 72 nM, respectively. In [9], the off-rate (koff) was 0.0061 s⁻¹. This molecule also yielded an on-rate constant (kon) in assay [9] of 480000 M⁻¹ s⁻¹.
